The values that follow come from the nanobody polyreactivity screen of Harvey et al. (2022).

The data set is described as follows: yeast display, Sf9 membrane polyspecificity reagent, FACS + sequencing; frameworks hold sequencing errors. The procedure, abridged:
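Using colony PCR, genes from sorted yeast display clones were amplified, then sequenced on MiSeq at 2 × 250 and filtered by CDR length. The clones had been stained with 10% biotinylated, detergent-solubilized Sf9 membrane reagent for 1 hour at 4 °C and sorted by FACS into low and high (top ~1%) gates on anti-HA and streptavidin fluorescence. Polyreactivity labels come from the gate of origin.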
With “QVQLVESGGGLVQAGGSLRLSCAASGSIIAGNVMGWYRQAPGKERELVAAISRRGGRTYYADSVKGRFTISRDNAKNTVYLQMNSLKPEDTAVYYCAARRDPVLGKSDFWGQGTQVTVSS”, the “polyreactivity (PSR sort gate)” value is “high polyreactivity”.

Take “QVQLVESGGGLVQAGGSLRLSCAASGSIIDRYAMGWYRQAPGKERELVAAISRSGGSTYYADSVKGRFTISRDNAKNTVYLQMKSLKPEDTAFYYCAAGGDSGDDWGQGTQVTVSS”: the “polyreactivity (PSR sort gate)” value is given as “low polyreactivity”.

“QVQLVESGGGLVQAGGSLRLSCAASGSIIDRYAMGWYRQAPGKERELVAAISYSGGRTYYADSVKGRFTISRDNAKNTVYLQMNSLKPEDTAVYYCAADSPYDEYDYWGQGTQVTVSS”: the “polyreactivity (PSR sort gate)” value was “high polyreactivity”.

As to “QVQLVESGGGLVQAGGSLRLSCAASGSIIFLYAMGWYRQAPGKERELVASISTSGTTITYYADSVKGRFTISRDNAQNTGYLQMNSLKPEDTAVYYCAAEAYGNRDYWGQGTQVTVSS”, the “polyreactivity (PSR sort gate)” value was “low polyreactivity”.

For “QVQLVESGGGLVQAGGSLRLSCAASGSIIGFYVMGWYRQAPGKERELVAGISDSGGRTYYADSVKGRFTISRDNAKNTVYLQMNSLKPEDTAVYYCAAEAYKHGVWDYDYWGQGTQVTVSS”, the “polyreactivity (PSR sort gate)” value is “low polyreactivity”.

Consider “QVQLVESGGGLVQAGGSLRLSCAASGSIIGPYAMGWYRQAHGKERELVAAITFSGGSTYYADSVKGRFTISRDNSKNTVYLQMNSLKPEDTAVYYCAAEYWYYTGYDYWGQGTQVTVSS”, for which the “polyreactivity (PSR sort gate)” value is reported as “high polyreactivity”.

In the case of “QVQLVESGGGLVQAGGSLRLSCAASGSIIKRNAMGWYRQAPGKERELVASISSGDGSTNYADSVKGRFTISRDNAKNTVYLQMNSLKPEDTAVYYCNAPFWGYRTSFSYPVVQRFDYWGQGTQVTVSS”, the “polyreactivity (PSR sort gate)” value is “low polyreactivity”.

In the case of “QVQLVESGGGLVQAGGSLRLSCAASGSIIKRNDMGWYRQAPGKERELVASITWRGGRTYYADSVKGRFTISRDNAKNTVYLQMNSLTPEDTSVYYCATTQYPSHYDAYGYWGQGTQVTVSS”, the “polyreactivity (PSR sort gate)” value was “high polyreactivity”.

For the sequence “QVQLVESGGGLVQAGGSLRLSCAASGSIIKSYAMGWYRQAPGKGRELVAAISSGGSTNYADSVKGRFTISRDNAKNTVYLQMNSLKPEDTAVYYCAARFRVDHRPYYYWGQGTQVTVSS”, the “polyreactivity (PSR sort gate)” value was “low polyreactivity”.

Consider “QVQLVESGGGLVQAGGSLRLSCAASGSIIKVYAMGWYRQAPGKERELVAAITSDGSTYYADSVKGRFTISRDNAKNTVYLQLNSLKPVDTAVYYCAASVYYLYFHGKYDYWGQGTQVTVSS”, for which the “polyreactivity (PSR sort gate)” value is “low polyreactivity”.

Take “QVQLVESGGGLVQAGGSLRLSCAASGSIIKYYAMGWYRQAPGKERELVAAISWRGGRTYADSVKGRFTISRDNAKNTVYLQLNSLKPEDTAVYYCNARAPQGYGTHRSKYRWGPMGYWGQGTQVTVSS”: the “polyreactivity (PSR sort gate)” value is reported as “high polyreactivity”.

For the sequence “QVQLVESGGGLVQAGGSLRLSCAASGSIINFNAMGWYRQQPGKERELDARINQGGGSTYYADSVKGRFTISRDNAKNTVYLQMNSLKPEDTAVYYCAAVRYVLRSPARYGYWGQGTQVTVSS”, the “polyreactivity (PSR sort gate)” value was “low polyreactivity”.

As for “QVQLVESGGGLVQAGGSLRLSCAASGSIIPYNAMGWYRQAPGKERYLVATISSGGSTNYADSVKGRFTISRDNAKNTVYLQMNSLKPEDTAVYYCAADVIVFYYAPNYWGDIEYGYWGQGTQVTVSS”, the “polyreactivity (PSR sort gate)” value is listed as “low polyreactivity”.

Regarding “QVQLVESGGGLVQAGGSLRLSCAASGSIIRGNAMGWYRQAPGKERELVAAISGSGGSTYYADSVKGRFTISRDNAKNTVYLQMNSLKPEDTAVYYCAARYVTSIYAYYYWGQGTQVTVSS”, the “polyreactivity (PSR sort gate)” value was “high polyreactivity”.

With “QVQLVESGGGLVQAGGSLRLSCAASGSIIRGYTMGWYRQAPGKERELVADITQSTGSTYYADSVKGRFTISRDTAKNTVYFQMNSLKPEDTAVYYCAAVEGWYLFTSNYWGQGTQVNVSS”, the “polyreactivity (PSR sort gate)” value is on record as “low polyreactivity”.

Turning to “QVQLVESGGGLVQAGGSLRLSCAASGSIIRTYAMGWYRQAPGKERQLVATITFGGVSTYNADSVKGRFTISRDNAKNTVYLQMNSLKPEDSAVYYCAADVYTRFWRVYRFDYWGQGTQVTVSS”, the “polyreactivity (PSR sort gate)” value is “low polyreactivity”.

For the sequence “QVQLVESGGGLVQAGGSLRLSCAASGSIIRVNTMGWYRQAPGKERELVAGITSRGGSTYYADSVKGRFTISRDNAKNTVYLQMISLKPEDTAFYYCANRAYGTALYRGYGNWGQGTQVTVSS”, the “polyreactivity (PSR sort gate)” value is reported as “low polyreactivity”.

For the sequence “QVQLVESGGGLVQAGGSLRLSCAASGSIISGYAMGWYRQAPGKERELVASISSSGGRTYYAYSVKGRYTISRDNAKNTVYLPRNSLKPEDTAVYYCNVKSYTYGYLPYDYWGQGTQVTVSS”, the “polyreactivity (PSR sort gate)” value was “high polyreactivity”.

Turning to “QVQLVESGGGLVQAGGSLRLSCAASGSIISNYVMGWYRPAPGKERELVAAITRRGGRTYYADSVKGRFTISRDNAKNTVYLQMNSLKPEDTAVYYCAAERYPEAGSPYGTAEMDYWGQGTLVTVSS”, the “polyreactivity (PSR sort gate)” value is recorded as “high polyreactivity”.

Consider “QVQLVESGGGLVQAGGSLRLSCAASGSIISSYTMGWYRQAPGKERELVAVITSGDSTNYADSVKGRFTISRDNAKNTVYLEMNSLKPEDTAVYYCNADYVKVFKLQFDYWGQGTQVTVSS”, for which the “polyreactivity (PSR sort gate)” value is listed as “low polyreactivity”.

As to “QVQLVESGGGLVQAGGSLRLSCAASGSIITGYAMGWYRQAPVKERELVAGINSGTSTNYADSVKGRFTISRDNAKNTVSLQMNSLKPEDTAVYYCAKTAERRHYGVYRFDYWGQGTQVTVSS”, the “polyreactivity (PSR sort gate)” value is listed as “low polyreactivity”.

On to “QVQLVESGGGLVQAGGSLRLSCAASGSIIVGYAMGWYRQAPGKERELVAAISWSGGRTYYADSVKGRFTISRDNAKNTVYLQMNSLKPEDTAVYYCATVTKGSLRYNYNYWGQGTQVTVSS”, for which the “polyreactivity (PSR sort gate)” value is recorded as “high polyreactivity”.

Consider “QVQLVESGGGLVQAGGSLRLSCAASGSIIVLNAMGWYRQAPGKERELVAAISSDGITYYADSVKGRFTISRDNAKNTVYLQKNSLKPEDTAVYYCAAYRVDYSDAYYYWGQGTQVTVSS”, for which the “polyreactivity (PSR sort gate)” value is “low polyreactivity”.

Consider “QVQLVESGGGLVQAGGSLRLSCAASGSIIVYYGMGWYRQAPGKERELVAAISSGGSTHYADSVKGRFTISRDNAKNSVYLQMNSVKPEDTAVYYCAADRFFWLRSYPRYYYWGQGTQVTVSS”, for which the “polyreactivity (PSR sort gate)” value is “low polyreactivity”.

As for “QVQLVESGGGLVQAGGSLRLSCAASGSIIWLYAMGWYRQAPGKERELVAAISSGGSTYYADSVKGRFTISRDNAKNTVYLQMNSLKPEDTAVYYCAADYWSQSDWWDLTEYEYWGQGTQVTVSS”, the “polyreactivity (PSR sort gate)” value is on record as “high polyreactivity”.

“QVQLVESGGGLVQAGGSLRLSCAASGSIIYTNAMGWYRQAPGKERELVAAITGTTTTNYADSVKGRFTISRDNAKNTVYLQMNSLKPEDPAVYYCNADYDRSRVYYSVELYDYWGQGTQVTVSS”: the “polyreactivity (PSR sort gate)” value is reported as “low polyreactivity”.

Consider “QVQLVESGGGLVQAGGSLRLSCAASGSILASNAMGWYRQAPGKDRELVAAITTSGGSTYYADSVKGRFTISRHNAKNTVYLQMNSLKPEDTAVYYCNAEYWLGRWLRYGYWGQGTQVTVSS”, for which the “polyreactivity (PSR sort gate)” value is given as “high polyreactivity”.

“QVQLVESGGGLVQAGGSLRLSCAASGSILCLNAMGWYRQAPGKERELVADITRGGSTYYADSVKGRFTISRDNAKNTVYLQMNSLKPEDTAVNYCAADAYTGQIPYYYFEHYYWGQGTQVTVSS”: the “polyreactivity (PSR sort gate)” value is “high polyreactivity”.

With “QVQLVESGGGLVQAGGSLRLSCAASGSILCTNAMGWYRQAPGKERELVAAITTSGASTYYADSVKGRFTISRANAKNSVYLPMNSLKPEDSAVYYCAAPSRYRYYWGNYWGQGTQVTVSS”, the “polyreactivity (PSR sort gate)” value was “high polyreactivity”.

As to “QVQLVESGGGLVQAGGSLRLSCAASGSILDHYAMGRYRQAPGKEREFVAAISIRGGSTYYADSVKGRFTISRDNEKNTVYLHMNSLKPEDTAVYYCNALSNYVYRRNDYGGQGTQVTVSS”, the “polyreactivity (PSR sort gate)” value is “low polyreactivity”.

“QVQLVESGGGLVQAGGSLRLSCAASGSILDVYAMGWYRQAPGKERELVATISWSGGDTYYADSVKGRFTISRDNAKNTVYLQMNSLKPEDTAVYYCNDVFSYYGYDYWGQGTQVTVSS”: the “polyreactivity (PSR sort gate)” value is listed as “low polyreactivity”.

Take “QVQLVESGGGLVQAGGSLRLSCAASGSILDWNAMGWYRQAPGKVRELDAAITNGVSTHYADSVKGRFTISRDNAKNTVYFQMNSLKPEETAVYYCAKAFWWRPEWWLRSARGSWGQGTQVTVSS”: the “polyreactivity (PSR sort gate)” value is “low polyreactivity”.

Turning to “QVQLVESGGGLVQAGGSLRLSCAASGSILEPYAMGWYRQAPGKERELVAAISSSGGSTRYADSVKWRFTISRDNAKNTVYLQMNSLKPEDTAVYYCAARFRAKFNYWGQGTQVTVSS”, the “polyreactivity (PSR sort gate)” value is “high polyreactivity”.

On to “QVQLVESGGGLVQAGGSLRLSCAASGSILEVYAMGWYRQAPGKERELVAAISDGDSTYYADSVKGRFTISRDNAKNTVYLQMNSLKPEDTAVYYCAAEFVGTLWWYDYWGQGTQVTVSS”, for which the “polyreactivity (PSR sort gate)” value is “low polyreactivity”.

With “QVQLVESGGGLVQAGGSLRLSCAASGSILFKNAMGWYRQAPGKERELVAAISTSGGRTYYADSVKGRFTISRDNAKNTVSLQMNSLKPEDTAVYYCAAVYPRQVSQVWRDDYWGQGTQVTVSS”, the “polyreactivity (PSR sort gate)” value is reported as “high polyreactivity”.

For the sequence “QVQLVESGGGLVQAGGSLRLSCAASGSILGANVMGWYRQAPGKERELVASISKSGGNTFYADSVKGRFTISRDNAKNTVYLQMNSLKPEDTAVYYCAKDVLGGQITDGVGNDYWGQGTQVTVSS”, the “polyreactivity (PSR sort gate)” value is given as “low polyreactivity”.

On to “QVQLVESGGGLVQAGGSLRLSCAASGSILGGNTMGGYRQAPGKERELVAAISRSGGSTYYADSVKGRLTISRDNAKNTVYLQMNSLKPEDTAVYYCNRKQAGHAQGYDYWGQGTQVTVSS”, for which the “polyreactivity (PSR sort gate)” value is on record as “high polyreactivity”.

Take “QVQLVESGGGLVQAGGSLRLSCAASGSILGHYAMGWYRQAPGKERELVAAISSSGGSTYYADSVKGRFTISRDNAKNTVYLQMNSLKPEDTAVYYCAADRGRPFPRGTGYYYWGQGTQVTVSS”: the “polyreactivity (PSR sort gate)” value is given as “high polyreactivity”.

For “QVQLVESGGGLVQAGGSLRLSCAASGSILGHYAMGWYRQAPGTERELVAAISRGGSTTYYADSVKGRFTISRDNAKNTVYFQMNSLKPEDTAVYYCAARSASKMDYWGQGTQVNVSS”, the “polyreactivity (PSR sort gate)” value is recorded as “high polyreactivity”.

“QVQLVESGGGLVQAGGSLRLSCAASGSILGINVMGWYRPAPGKERELVAAISRRGGSTYYADSVKGRFTISRDNAKNTVYLQMNSLKPEDTAVYYCAATRTARTMGYWGQGTQVTVSS”: the “polyreactivity (PSR sort gate)” value is “high polyreactivity”.
